The series is described as follows: soluble on expression in E. coli; label from the status in PepcDB or PDB records.
For the sequence “MAHHHHHHMPLCASIPATVDTDTNTRALYLDDLDKCMKNFSSALASTMNAYQNLLTAFDQVAQVYGNVAQECGDEVRKPVGEFRDGMRDLKDKGGFETFNHEIHVGTIAVIEPVKSDLKKALKSLKCLRLKQKEYDAVRYDLEQTEKSYAKKNKPLVTSSSYKKTLAKRDKVKTSYDASREAFGEEINALQATTKSVLLQSLNNYLHCTAAFCGQLEATMNGYRTDVDHHGSTTFTNDQMDKLKEKAEAESMARRAKRKSEASNPFQTGYDVTSNNSHRNLPSVDDGLYQKKDSLVDTESVNRYPNAEFAPPMQNGGDDNFTLREQYDDGAPGDADDVNPLVDANNDE”, the “soluble on expression in E. coli” value was “soluble”.
For “MAHHHHHHMPTSSWRAEHLLIKHSGSRNPVSRRTGQPTTISYEEAVTELQKWCQSINDGKVTFEEAARQRSDCSSYARGGDLGVFGPGEMMKPFEDATKSLEVGQVSGIVVTDSGVHIIKRIA”, the “soluble on expression in E. coli” value is recorded as “soluble”.
For “MAHHHHHHMPTYVGKEAPFFKAEAVFGDNSFGEVNLTQFIGKKYVLLYFYPLDFTFVCPSEIIALDKALDAFHERNVELLGCSVDSKYTHLAWKKTPLAKGGIGNIKHTLLSDITKSISKDYNVLFDDSVSLRAFVLIDMNGIVQHLLVNNLAIGRSVDEILRIIDAIQHHEKYGDVCPANWQKGKVSMKPSEEGVAQYLSTL” the value was “not soluble”; for “MAHHHHHHMQIGLAGCSSSLHTSPSSGSAAGSGFYGARGQEAAASATVNSSGANGLCAGATMSSPSATPTLPPLPSTMDEPVDLFPLTPSVSMLQRHSKRSGRLLNESETMQEKHGQEYRFLVPWLAYAIDCTIAAHEVLRQKHGIPAHVSSPASPSANTLNGATDVKRSSRGSANGDPTYADTAGGSSGSGQAALPSPQAELNAFSTREVPAISVHDYLKRIVKYTYVSPSVLVCGCLYLDRLLCMHPCMLLHPYNVFKLFLTSTRMASKIMDTRTLNNHDFSVVGGVTNDDLNALEFLMVELLQNRLYFSRDTFDEYCRPLRLQAAHLTEEASDWGAETAMETPVETRSGVQHQPTRPFLARCNGSNTRSRRSSILSQNEYSVSIASQSGVSPLRSASRPAFPPSASTARSISVDTESIGPARAPASRGGSASTSAPRHPLGTSYSPALPHVPHTAANGGSSPALGAMGGLSGRGASGEDMLRVATHTNSIYQSSNGVWTGQTPPDSVTVLVGVEERGDERARSISLSAPRCGATTSWDATGRPSRLLAASTSTMAGLCTAALNGGRGGYESSPNVCAAPTYNRASASSSRGITASAEDFGAGSMVISYSDRTPTRRAFSHASREGIALPPVVCSGRSERSASVIGVAAQGQRLPPPPDQPRV”, “not soluble”; for “MAHHHHHHMQMEEKQAFFVESVDGRKFKMVIRGDLGKLSVAKIRRYLKSYGVPENQLLLAGNRVLEDAMLGEQFGLENEGVLHLREPTTVQHLAPAAVPSTAQSRTQLQQKPELSYEPQSAWRETRYEPAAHDARQMQREIERLQRQVEAAEARNADLEHQLEQVAESSAPYPPRGGA”, “not soluble”.
As to “MAHHHHHHMQQASAAASDEWRTKFGGGGASHDWQASKGNFTNQEFESYWGQKWPNWLKTEKATYPNAANKKWLEQNPPPKQGPAQAKTAKQLAVYAEEAAALARTYTEGITAAHGRELKAIKTALRAALYGTNKKTARAFRR”, the “soluble on expression in E. coli” value was “soluble”.
For “MAHHHHHHMQQSSLVRRNVFHYTTVLTACTRAGQMDAAMMVFRQMKANKVKPNVYTYTTLINGCANAEKLDLALRIFAEMRLVEVPPNVKTMTALISVCSRCGQWKKGFQVLDQCEDLFIAPNALTYTAAMDGCRRAGVCTPAIALLEARMTDPSQVRPNEVTYNTVLGACAAAKDHKAALRVYARMVADGYEPIEYTRELLREVFRGTSLDGLADKLMVRVRTSKWEAYVPDSDPATALRAAQEGG” the value was “not soluble”.
For “MAHHHHHHMQTLDINNSFAVPFDEDPQDAGVWFFDTNYAQEMFAMHKRVLPKVKVVGWYSSGPTIQPNDMLLHLLVADRFCLNPVYCVVNTDPNNKGVPVRAYTTVQGREGTRSLEFRNIPTHLGAEEAEEIGIEHLLRDLTDSTITTLSTQVQERELSLVHLCKVLQQIEEYLKDVGNAVMPISEDVLEVLQELISLQPEIYARRSSTEMIRHTNDEAIATFLAAIARCIGALHGVIMNRRKLARELQEIKDRRARAAETRLENEKMKIEEAAKEKDTNQA” the value was “soluble”.
With “MAHHHHHHMQVPPLTELSPSISVHLLLGNPSGATPTKLTPDNYLMVKNQYALSYNNSKGTANWVAWQLNSSWLGNAERQDNFRPDKTLPAGWVRVTPSMYSGSGYARGHIAPSADRTKTTEDNAATFLMTNMMPQTPDNNRNTWGNLEDYCRELVSQGKELYIVAGPNGSLGKPLKGKVTVPKSTWKIVVVLDSPGSGLEGITANTRVIAVNIPNDPELNNDWRAYKVSVDELESLTGYDFLSNVSPNIQTSIESKVDN”, the “soluble on expression in E. coli” value is given as “soluble”.
For “MAHHHHHHMQYQRAALVIASPALTQREVEFTKSAWLAGLRPDQRTAQQMREVSVEFPLLSRDVVVVRCGGSVVTAAIATALVEPTPQRPKHGLLHFSVRRLHTERDSPAADGSTQKNLVAFLERLVRTGGVIDTAGLCVLPGQKVWSLTVDVTIMNDEGNCNDAAVWAVIALLMHHRRPELTVRGSSVIVHPPHEREPVPLSVQHTPLPFTFAITMAPTEREKALNHQRALSATGSSSGPQPSSGVGNSIDTASAFAIDGTSPQPLGVVVDPTTAESLAAASSIVVAINAEGQVCTVVKAEGCSIHLKDLNACIEAAGTLAPRVLDLIKVAMEAHDERRKTAMKGQFAWAQKRSGVGKVEQACVKKIKTET” the value was “not soluble”; for “MAHHHHHHMREKTTSAATPMRCRKELAATLTRTRNSPRTPVTFELATERGLHNFSRRGPRVRAKSSIAVHAATASPLSLLEQTLWTEIEQLNAATNRLRERILEVKREFSADAIAAVTGGEPLPVEARTGGLFRNPPKQRGQNSKDEPPYAVTFTPSHSQKKAANVRLQFTSPRKTPMKENDSSVLTSLAMFEYTPQNDDHREGARPTENRNVLQELKRDETFETGTPVHLSEAATMGGPFVVDLQKSDHGAANNTAEKPTELSTSVDSARESAKHLLLQANMMGVEQDLNHYMSDLLAIQRDTLDAQKRGLIDPNDSSVRELRLGIRDELNACRARILTLESLQTSLSAGVATKKTIS”, “not soluble”; for “MAHHHHHHMRFVFRRLLPASTAAVAAPPSLLSMRGAPSFVHPPAEEAIGKDVRATPANWVTAYVLPEVITEQEEKTLLDFSEPWFERLSYNDGHMDGLIHHYKEFYRSYAAITQAAETGSDAGLNMPHANLEVDLPLVSEALARAHDLAQTYLPCIPIDDRVHFLRLAGSGFIRAHVDESRNSTGIVAGLCLNAGRVMTLTHPAYPGERVELMLAPRCLYILIGRARYDWAHSVDWVGDDDEHIRRIQKSLAVEGTPIRFDGAETPYRRSDRTAIIFRGVSPMTLLVRRMRQRG”, “not soluble”.
On to “MAHHHHHHMRKIYIAGPAVFNPDMGASYYNKVRELLKKENVMPLIPTDNEATGALDIRQKNIQMIKDCDAVIADLSPFRGHEPDCGTAFEVGYAAALNKMVLTFTSDRRNMREKYGSEVDKDNLRVEGFGLPFNLMLYDGVEVFDSFESAFKYFLANFPSK”, for which the “soluble on expression in E. coli” value was “soluble”.
For “MAHHHHHHMRLLRLSTKVGMESNNAALRAHLLSLRGTEPVGDPKNPLHVQLQIHDGHRNTLLSHTKELYVTALQHHPETFVNVIPLLPLSDDESSPSNDGGASNDSITLFNAASMTADRGFTPLFSHVALGGTFDRLHAGHKLLLTTALFYASKSLRIGVTLESMLKKKTYGSYIEPFETRCKLVSEFLYSVRRDIDVTVVGITEPSGGTNRDAEIEALVVSPETAGVLASINDERASYGLKPLECIQIPYVSAEGDGRVSSTELRRRLHENASGAN” the value was “soluble”.
The value for “MAHHHHHHMRNGPKVLIALGNELKRGAASHQCKGDVARMYVNYLRQRYSMDEWNHVSNVNSFICEKNNIILIKPVTSLEKNSGLAIKNILNYLNCEDLKNVCIILPDLYRSIGKFKYKSYTKIYEKLGPDFYNILNSNIINNVLCNHFLQLCIGVSNYPNETKNAVAIALQECLSDGELKKIFKTFQLAEEYFHKKIMNGKVITTNYIHFKEKYPAMEPQKSFRRSTASRRYILDVYRHMYK” was “not soluble”; that for “MAHHHHHHMRRCFKLQAPPGVLSILSDLAQPRTSTSYQELLRNSHLPAQPLPFLPPPRWAAELSRVLHRTFPDVVQHHHTRFLQVFVHPSFTTAAGVSGTMQPLVAVGESLLERIGGLWILATFESTRREEYASLLALLTSDTALCRVLRDHWRLEHMVLTDASADLFSRQRLSSTKGLVCWLSSHGNVNGAQSLPEPFGAGCVKAMVAAVLLEHGNDAAEHFVKSEVLPYVL” was “not soluble”; that for “MAHHHHHHMRSLPNIIVTGVPGVGKTTLCEELVEVINKELQEGQQAEPANQMKHLNLSKVIKEERLYEEFDDQLDATIYSNDMVNEKMEKLKLENGGYIIDFHDVDFLEQKELIDHIFLLTTSTNKLYERLEKRNYAKEKIKNNIECEIFQVIKEDILTFYNDPSIFDELGNNDMEQYESNLQLIKGWVLSWAKSGEALPR” was “soluble”.
For “MAHHHHHHMRTHKTHAYIQAHCLCDFYLTYCAGWVGAIKADGSGQPREPSNGVFGCVRDYIFHQMLDAVHGSSKVFFCDAHAAAVLNCSLRLHDLMERGVTLLEDLMAPRQPIMSSFTPYFFAVEDACVSCVVEDWMAKVPYRDVHIFALGCAPHRSPQQLPRSRIAPRVMRFKEMMLDFTATEALVFHPNMQNGLPQLLSPLSPPT” the value was “not soluble”; for “MAHHHHHHMRVIIQRVKNAALSVIKEESKETEKQLELFSEIKNGIICFVGIHKNDTWKDAMYIIRKCLNLRLWSDGNKSWDKSVKDLNYEILFVSQFTLFANTKKGNKPDFHLAKEPKEALAMYNKMVEQFAKDYNHEKIKTGKFGCYMNIQVTNDGPVTIFIDSHDVNLDN”, “not soluble”.
As for “MAHHHHHHMSAAGRLIRIRKKSKWIDRRSKRIPHNGKDVWQFGEQPSCALCHVRFRFKQDYEAHKESELHQNRLRWVETMKWWEEIGEPHHQQHAASEWEWFRQRVLPAKAAAMGLSEEDAARELRRAVMHETPRWYSRIQPPNARSEIKEPRDQRWPSSPKW”, the “soluble on expression in E. coli” value is on record as “not soluble”.
For “MAHHHHHHMSDNFFIPTFEHIYEQSIPPPLIKHSRKCKNYNKKRKNIIKYTSQDICVEQRNYDKENKEHKYVCINFHTFNKKCYHKNIRLLDHTHLDFTLGESLMYLLNAIIEVISKLKEGKEYKWNIKGKLINSKKENNIQIVYIENAFLSFKSIVLHAPLLKIKSIDI” the value was “not soluble”; for “MAHHHHHHMSEEKGAYLVFDNASNGTLFIVWKKEKVENALMFIKPTKEVPEFKFVNRNGKNELIRNLQSDKKLFYSGICQFVKEAKDIKGKLTLLQHFDSSFPIKVDLYFLKGSKVMPLNTGEPFVVQDIDAMSVLPKGSSSLKVKTMAKDMFVSRGNTEGASISF”, “not soluble”.
For “MAHHHHHHMSEGGRRRKVYGFKAERQAFFSKHVRQTFLEEGRKKKDEERARMEAYRKLCEEEGIVSKRLEDYDRTRKAAKEHLSSTLEQIDYDQSLTNNEKKKRKYNLKRKFAATTVNDLIDKQQKHYSAVSGMEEVQRRQQQEREEKQKARQEREREKQSRVQARKSRNALFAKRTKKGQPAMSSRVESLLQKISWQ” the value was “not soluble”.

Values taken from the DeepSol protein solubility set.
